# Source: FireProtDB (doi:10.1006/jmbi.1993.1336)
# B1: Guanyl-specific ribonuclease T1 wild type, P00651 (protein)
# chain: MMYSKLLTLTTLLLPTALALPSLVERACDYTCGSNCYSSSDVSTAQAAGYQLHEDGETVGSNSYPHKYNNYEGFDFSVSSPYYEWPILSSGDVYSGGSPGADRVVFNENNQLAGVITHTGASGNNFVECT
# Conditions: Aspergillus oryzae (strain ATCC 42149 / RIB 40), GdnHCl, Fluorescence, reversible: yes, whole UniProt chain shown
# [1] = pH 5, 25 °C, Sodium acetate 0.1 M
protein,measurement,setting,value
B1,denaturant m value,[1],2.75 kcal/mol/M
same,denaturant midpoint (higher = more stable),[1],3.64 M
same,unfolding free energy,[1],10 kcal/mol
same,denaturant m value,"pH 8, 10 °C, Tris 0.1 M",2.63 kcal/mol/M
same,denaturant midpoint (higher = more stable),"pH 8, 10 °C, Tris 0.1 M",3.21 M
same,unfolding free energy,"pH 8, 10 °C, Tris 0.1 M",8.44 kcal/mol
same,denaturant m value,"pH 8, 25 °C, Tris 0.1 M",2.46 kcal/mol/M
same,denaturant midpoint (higher = more stable),"pH 8, 25 °C, Tris 0.1 M",2.4 M
same,unfolding free energy,"pH 8, 25 °C, Tris 0.1 M",5.91 kcal/mol
